According to patent US6878861B2, “Acyl coenzyme A thioesterases” (Washington State University Research Foundation, priority 2000, dated 2005):
Entries after “also recorded” stand apart in the source; their conditions may differ.

Experiment: Acyl-CoA thioesterase assay with radiolabeled acyl-CoA, lysate of cells over-expressing ACH1
Format: biochemical
Conditions: lysate of transfected E. coli cells
Description: In these assays, radiolabeled acyl-CoA is used as a substrate in which the [^14C] label is on the fatty acid portion of the molecule, and the enzyme activity is measured by the amount of labeled free fatty acid released by the action of the enzyme. Typically, the acyl group is palmitoyl-CoA (16:0 Co-A) or oleoyl-CoA (18:1-CoA). Because the reaction pH must be below 9, as a pH above this level causes base-catalyzed hydrolysis of the substrate, in most experiments the enzyme activity is measured between pH 7 and 9. The reactions are conducted at room temperature. The reaction volume is generally kept from about 32 μl to 100 μl. Although the reaction times may vary, typical incubation times are 10-15 minutes, which is sufficient for even small amounts of protein.
The protein solution to be assayed, which can be purified protein over-expressed in E. coli or unpurified protein in a plant extract or a plant subfraction, such as purified chloroplasts, is brought to the desired volume with buffer (20 mM Tris-HCl, pH 7.2, 200 mM NaCl and 1 mM EDTA). […] An 850 μl aliquot of the hexane phase is added to 3 ml BCS, and the amount of radioactivity determined in a scintillation counter.
The level of acyl-CoA thioesterase activity is determined by the amount of radioactivity that is found in the hexane phase. […]

B1: ACH1: Arabidopsis acyl-CoA thioesterase ACH1 (SEQ ID NO:5), expressed as fusion protein with a 6 histidine tag; assayed as cell lysate (protein, listed as Arabidopsis thaliana)
chain: MNTESVVEFLGNVTLLQRLPSSSLKRISEVVVFKGYDRGDYVVRENQNVDGVYFLLQGQAQVLRSAGEENYQEFPLKRYDFFGHGIFGDVYSADVVAVTELTCLLLMSDHRALLEIKSVSDSDKERCLVEDILYLEPLDLNVYRGFTPPNAPTYGKVYGGQLVGQALAAASKTVETMKIVHNFHCYFLLVGDINIPIIYDVNRLRDGNNFATRSVDARQKGKTIFTLFASFQKKQQGFIHQESTMPHTPAPETLLPREEMLERLVTEPLLPRDYRNQVATEISVPFPIDIRFCEPNRSTKQNKSPPRLKYWFRAKGKLSDDDQALHRCVVAFASDLIFATISLNPHRREGMSVAALSLDHSMWFHRPVRADDWLLFVIVSPTATESRGFATGKMFNRKGELVVSLTQEAVLREAVTIKPSFGAKL
- acyl-CoA thioesterase activity of cell lysate compared with control plasmid cells: no increased acyl-CoA thioesterase activity was observed in cell lysates; also recorded: no greater than the level of activity in cells transfected with a control plasmid
